The source of these data is US11634486B2, “Anti-SEZ6L2 antibodies and antibody drug conjugates” (Bluefin BioMedicine, Inc., priority 2016, dated 2023).

For this test, the system named is small cell lung cancer cell line NCI-H209. Briefly: ADC combined with PARP inhibitor, cell viability. It is filed as cell-based, human. Conditions: 10 pM conjugate plus olaparib 10 nM to 10 uM, six days.

Procedure: Briefly, the small cell lung cancer cell line NCI-H209, which expresses ˜10,000 copies of SEZ6L2 on the cell surface, was seeded onto 96 well plate at 5000 cells/well Immediately after seeding, 10 pM of 3E2-PBD or isotype control hIgG-PBD (bearing a drug antibody ratio (DAR) of 1.7 and 2.5 respectively) were added to the wells in complete culture medium. A PARP inhibitor (olaparib) was then added to these wells such that the final concentration ranged from 10 nM to 10 uM. The PARP inhibitor was also tested on cells without an ADC. Each treatment was replicated in 2 wells and after six days, the PARP inhibitor plus modulator-mediated PBD cytotoxicity was assessed by quantifying the remaining number of live cells using Cell Titer Glo™. Cell viability was graphed by Prism™ using ratio of cell viability of test conditions to that of control wells treated with growth medium only.

B1: 3E2-PBD (conjugate)
VH: EVQLVESGGGLVQPGGSLKLSCAASGFSFNTITMNWVRQASGKGLEWVGRIRSKSNNYATYYADAVKDRFTISRDDSKNTAYLQMNSLKTEDTAVYYCVRGIFSGYVYAMDYWGQGTLVTVSSA
VL: DVVMTQSPLSLPVTVGQPASISCRSSQSIVHSNGNTYLEWFQQRPGQSPRVLIYKVSNRFSGVPDRFSGSGSGTDFTLKISRVEAEDVGVYYCFQGSHVPYTFGGGTKLEIKR
Take B1: the “percent viable cells, conjugate combined with PARP inhibitor” value is recorded as “additive effect”.
